# Key:
# MS2 coat protein [1] = assay: apparent KD of MS2 coat protein; designed switch direction (-1 OFF switch, 1 ON switch): -1; higher = weaker reporter binding; conditions: Eterna round: R98
# Description: (§1)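 RNA-MaP: designed FMN/MS2 RNA switches (84 nt design region) are transcribed on-chip within common flanks and titrated with SNAP-549-labelled MS2 coat protein (about 1-3000 nM) in 100 mM Tris pH 7.5, 80 mM KCl, 4 mM MgCl2, without or with 200 uM FMN. Median apparent KD per design; activation ratio = KD,OFF / KD,ON.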
# MS2 coat protein [2] = assay: apparent KD of MS2 coat protein; higher = weaker reporter binding; conditions: Eterna round: R101
# Description: as §1
Sequence,apparent KD of MS2 coat protein (MS2 coat protein [1]; input ligand: FMN 200 uM) [nM],apparent KD of MS2 coat protein (MS2 coat protein [1]; input ligand: none) [nM],apparent KD of MS2 coat protein (MS2 coat protein [2]; input ligand: FMN 200 uM) [nM],apparent KD of MS2 coat protein (MS2 coat protein [2]; input ligand: none) [nM]
CGCUCGCCGAGAGGAUAUGCAUUGGUGGGCGGUCCUGAACAUGAGGAUCACCCAUGUAUCAGUAAGCAGAAGGCUUGGUAGACG [Usesreed],16.5,20.1,–,–
GGUUGUUACGCAGGAUAUUGCCAACAGGCAGUAGGAUAUCCGAAAGGAGAAGGACCGCCAACAGGCGAGAAGGGCGGGUUAACC [pwkr exNG2 2xF7 2FMN.10.4],48.3,35.4,–,–
"UUUUUUUUUUUUUACGCUUUGCGACGAGAAGGUACACAUGAGGAUCACCCAUGUCGAUUGGGAGGUAAGGAUAUUGGAUUGCGU [Inverted Small Loop Same State NG 3 Solution, Uracil-heavy] (puzzle (switch architecture): Inverted Small Loop Same State NG 3)",–,–,0.483,18.4
AGACCUGCUCAGAAGGCGGGUGCGAGGCUGGAAACAGCCUCGAAUUAAAAUCUUCGAGGAUCACCCGAGGAUAUGAGCAGGUCA [#SharedSequence - IExNG2: 16] (puzzle (switch architecture): Inverted Exclusion NG 2),–,–,19,54.2
AAAUAAAUCGAAGGAUAUGACCCUCGAGGUGACUAAAAGUCACCUCGAGGGUCAGAAGGUCGAGGAUCACCCGAUCUAAAUAAA [#SharedSequence SLExNG1: 2-1] (puzzle (switch architecture): Small Loop Exclusion NG 1),–,–,259,16.2
AGAGCCUCGUGAGGAUAUACAUGAGGAUCACCCAUGUAAUAGGAUGAACGGAGGAAACUCCGAAUGUAGAAGGCACGAGGCUCA [Exclusion NG 2/11-B1],686,74.5,–,–
UAAAUAAAUCCUAGAGGAUCACCCUAGGAUAUGAGGCUGCACCUCGGAUAAUCCGAGGUGCAGCCUCAGAAGGAGGAAAAUAAA [#SharedSequence - SLExNG3: 4-2] (puzzle (switch architecture): Small Loop Exclusion NG 3),–,–,7.71,8.16
UAAAUAAAUCCUAGAGGAUCACCCUAGGAUAUCACCGUCGAGGUGCCAUAAUGGCACCUCGACGGUGAGAAGGAGGGUAAUAAA [#SharedSequence - SLExNG3: 1-1] (puzzle (switch architecture): Small Loop Exclusion NG 3),–,–,29.3,13.8
UGUUGUUACGCAGGAUAUUGCCAACAGGCGGUAGGAUAUCCGAAAGGAGAAGGAUCGCCAACAGGCGAGAAGGGCGGGUUAACA [pwkr exNG2 2xF7 2FMN.10.3],26.7,21.3,–,–
UAUAUUUAGGCAGGAUAUACAUGUAUAUAUAAUUUUUUAUAUAUUAUUACAUGAGGAUCACCCAUGUAGAAGGGCCUUAUUAUA [LRO040_Exclusion NG 2],62.9,51.2,–,–
ACAGGUCGUGAGAAGGCGUGUGGCACCGUCGAAAGACGGUGCAAUUAAAAUCUUCGAGGAUCACCCGAGGAUAUCACGACCUGA [#SharedSequence - IExNG2: 19] (puzzle (switch architecture): Inverted Exclusion NG 2),–,–,32.2,12.2
GUCAGCUCGUGAGGAUAUACAUCACUGCUUCGGCAGUGUAUUAAGAUAACAUGAGGAUCACCCAUGUAGAAGGCACGAGCUGAU [#MS2NeighbourBaseDeletion - ENG2/2-A2] (puzzle (switch architecture): Exclusion NG 2),–,–,8.5,5.49
